The values below come from paper PMC8564726, “Heterodimerization of H3K9 histone methyltransferases G9a and GLP activates methyl reading and writing capabilities” (The Journal of Biological Chemistry, 2021).

Data set [1] deals with H3_1–20 K9me1 peptide. Put plainly: Fluorescence polarization binding to H3K9me1 peptide. On the procedure: (§1) Polarization assays with fluoresceinated H3_1–20 K9me1 or K9me2 peptides, 147 bp 601 DNA template, and core nucleosomes were performed and Kd values estimated as described ([11]) with the following modifications: The reaction buffer was 100 mM Tris pH 8, 100 mM KCl, 1 mM MgCl2, 20 μM ZnSO4, 10 mM BME, 0.1% NP-40. The concentration of peptides and nucleosomes was 150 nM and 200 nM for DNA. Polarization measurements were conducted on a Biotek Cytation 5 (peptide and nucleosome) or Molecular Devices Spectramax (DNA) plate reader with low-volume plates (Corning) in either 10 μl (peptide, nucleosome) or 40 μl (DNA) total volume.

For data set [2], the system named is H3_1–20 K9me2 peptide. Put plainly: Fluorescence polarization binding to H3K9me2 peptide. As for the experimental part: as §1
The test system of data set [3] is unmethylated (H3K9me0) mononucleosomes. Kind of data set: Fluorescence polarization binding to unmethylated mononucleosome.
From the text: (§2) Histone proteins and nucleosomes were purified as described ([11], [26]) with modifications (see Supporting methods). For fluorescence polarization, nucleosomes were reconstituted with a 5ʹ fluoresceinated DNA template. H3K9 dimethylation was installed via Methyl-Lysine Analog (MLA) technology as described ([10], [26]). K9 MLA-monomethylated H3 was purchased from Active Motif. H3K27A was introduced by site-directed mutagenesis and purified as described ([26]).
as §1

Data set [4] concerns H3K9me1 monomethylated mononucleosomes. Kind of data set: Fluorescence polarization binding to H3K9me1 mononucleosome.
From the text: as §2, §1

The test system of data set [5] is H3_1–20 peptide. Put plainly: H3 tail peptide methylation kinetics (multiple turnover). The format is biochemical. The conditions noted are these: Michaelis–Menten, 9 μM 3H-SAM + 1000 μM cold SAM, 0.4 to 0.8 μM enzyme, pH 8, duplicates, 95% CI: G9a-G9a 24.6-34.6, GLP-GLP 9.5-15.5, G9a-GLP 26.0-34.5, G9aS-GLP 20.5-28.3, listed as GLP. As for the experimental part:
(§3) Substrate peptides or nucleosomes were mixed in a solution containing 9 μM tritiated S-Adenosyl Methionine (SAM, PerkinElmer) cofactor, and reactions were initiated upon addition of 0.4 to 0.8 μM enzyme. Peptide reactions were supplemented with 1000 μM cold SAM to fully saturate the SAM-binding pocket (Fig. S3). Due to signal limitations, nucleosome reactions were not supplemented with SAM (see Supporting methods). Reactions were run in 100 mM Tris pH 8, 100 mM KCl, 1 mM MgCl2, 20 μM ZnSO4, 10 mM BME and quenched with laemmli buffer. Peptide reactions were performed as described ([11]). Nucleosome methylation reactions were read out via autoradiography as described ([11]), except that proteins were separated on an 18% SDS PAGE gel.
All methylation reactions (except Fig. S4A) were performed under Multiple Turnover conditions ([25]). To determine initial rates, methylation time courses were traced at various concentrations of H3K9-containing substrate while keeping the concentration of SAM and enzyme constant. Plots of initial rate versus concentration H3K9 substrate measured in duplicate or triplicate were fit to V = Vmax∗[S]/(KM + [S]) using Prism software to extract KM and kcat (or kobs) values as well as the 95% confidence interval bounds of the fit. See Supporting methods for special considerations for nucleosome kinetics.

The subject of data set [6] is mononucleosome (core nucleosome). Kind of data set: Mononucleosome methylation kinetics (multiple turnover). Type of data set: biochemical. The conditions noted are these: initial rates, 10 μM histone tails (Fig. 3F).
From the text: as §2
Substrate peptides or nucleosomes were mixed in a solution containing 9 μM tritiated S-Adenosyl Methionine (SAM, PerkinElmer) cofactor, and reactions were initiated upon addition of 0.4 to 0.8 μM enzyme. Peptide reactions were supplemented with 1000 μM cold SAM to fully saturate the SAM-binding pocket (Fig. S3). […] Nucleosome methylation reactions were read out via autoradiography as described ([11]), except that proteins were separated on an 18% SDS PAGE gel. […]
(§4) Detailed E. coli protein expression, purification, and tag cleavage methods Cells co- expressing His and MBP constructs were lysed on ice via sonication in lysis buffer (100mM Tris pH 8, 300mM NaCl, 10% glycerol (v/v), 0.1% Tween-20, with freshly added 1mM β-mercaptoethanol (BME), 1mM PMSF, 5mM Benzamidine, 200µM Leupeptin, Aproptinin, Pepstatin, Phenantroline). […] All protein constructs were quantified using SDS page with BSA standards and Sypro Red stain. […]

The test system of data set [7] is 10-nucleosome arrays. Put plainly: Nucleosome array methylation, initial rate. Conditions: 2 μM histone tails, nonsaturating (Fig. 3H). Type of data set: biochemical. On the procedure:
as §3
All methylation reactions (except Fig. S4A) were performed under Multiple Turnover conditions ([25]). […]
as §4

Broadly, the Kd is the equilibrium constant for the complex coming apart.

Where two headings read alike, the source gives them in different places.

B1: full-length G9a: E. coli expressed MBP:FL-G9a (protein)
chain: MRGLPRGRGLMRARGRGRAAPTGGRGRGRGGAHRGRGRPRSLLSLPRAQASWAPQLPAGLTGPPVPCLPSQGEAPAEMGALLLEKEPRGAAERVHSSLGDTPQSEETLPKANPDSLEPAGPSSPASVTVTVGDEGADTPVGAASLIGDEPESLEGDGGRIVLGHATKSFPSSPSKGGACPSRAKMSMTGAGKSPPSVQSLAMRLLSMPGAQGAATAGPEPSPATTAAQEGQPKVHRARKTMSKPSNGQPPIPEKRPPEVQHFRMSDDMHLGKVTSDVAKRRKLNSGSLSEDLGSAGGSGDIILEKGEPRPLEEWETVVGDDFSLYYDAYSVDERVDSDSKSEVEALAEQLSEEEEEEEEEEEEEEEEEEEEEEEEEDEESGNQSDRSGSSGRRKAKKKWRKDSPWVKPSRKRRKREPPRAKEPRGVNGVGSSGPSEYMEVPLGSLELPSEGTLSPNHAGVSNDTSSLETERGFEELPLCSCRMEAPKIDRISERAGHKCMATESVDGELLGCNAAILKRETMRPSSRVALMVLCEAHRARMVKHHCCPGCGYFCTAGTFLECHPDFRVAHRFHKACVSQLNGMVFCPHCGEDASEAQEVTIPRGDGGTPPIGTAAPALPPLAHDAPGRADTSQPSARMRGHGEPRRPPCDPLADTIDSSGPSLTLPNGGCLSAVGLPPGPGREALEKALVIQESERRKKLRFHPRQLYLSVKQGELQKVILMLLDNLDPNFQSDQQSKRTPLHAAAQKGSVEICHVLLQAGANINAVDKQQRTPLMEAVVNNHLEVARYMVQLGGCVYSKEEDGSTCLHHAAKIGNLEMVSLLLSTGQVDVNAQDSGGWTPIIWAAEHKHIDVIRMLLTRGADVTLTDNEENICLHWASFTGSAAIAEVLLNAQCDLHAVNYHGDTPLHIAARESYHDCVLLFLSRGANPELRNKEGDTAWDLTPERSDVWFALQLNRKLRLGVGNRAVRTEKIICRDVARGYENVPIPCVNGVDGEPCPEDYKYISENCETSTMNIDRNITHLQHCTCVDDCSSSNCLCGQLSIRCWYDKDGRLLQEFNKIEPPLIFECNQACSCWRSCKNRVVQSGIKVRLQLYRTAKMGWGVRALQTIPQGTFICEYVGELISDAEADVREDDSYLFDLDNKDGEVYCIDARYYGNISRFINHLCDPNIIPVRVFMLHQDLRFPRIAFFSSRDIRTGEELGFDYGDRFWDIKSKYFTCQCGSEKCKHSAEAIALEQSRLARLDPHPELLPDLSSLPPINT
As to B1, the “affinity for H3K9me1 peptide, in words” value in data set [1] is “no discernable affinity for me1 or me2 peptides”. Further, the “affinity for H3K9me2 peptide, in words” value in data set [2] is on record as “no discernable affinity for me1 or me2 peptides”.

B2: GLP-GLP: homodimer of GLP truncated to the C-terminal ANK and SET domains (ANK-SET) (protein)
chain: MAAADAEQAVLAKQETKQDCCMKTELLREDTPMAADEGSTEKQEGETPMAADGETNGSCEKSGDPSHLNAPKHTQENTRASPQEGTNRVSRVAENGVSERDTEVGKQNHVTADDFMQTSVIGSNGYFLNKPALQGQPLRTPNILTSSLPGHAAKTLPGGASKCRTLSALPQTPTTAPTVPGEGSADTEDRKPTASGTDVRVHRARKTMPKSILGLHAASKDHREVQDHKEPKEDINRNISECGRQQLLPTFPALHQSLPQNQCYMATTKSQTACLPFVLAAAVSRKKKRRMGTYSLVPKKKTKVLKQRTVIEMFKSITHSTVGAKGEKALDDSALHVNGESLEMDSEDEDSDELEDDEDHGAEQAAAFPTEDSRTSKESMSETDRAAKMDGDSEEEQESPDTGEDEDGGDESDLSSESSIKKKFLKRRGKTDSPWIKPARKRRRRSRKKPSSMLGSEACKSSPGSMEQAALGDSAGYMEVSLDSLDLRVRGILSSQTENEGLASGPDVLGTDGLQEVPLCSCRMETPKSREISTLANNQCMATESVDHELGRCTNSVVKYELMRPSNKAPLLVLCEDHRGRMVKHQCCPGCGYFCTAGNFMECQPESSISHRFHKDCASRVNNASYCPHCGEEASKAKEVTIAKADTTSTVTLAPGQEKSLAAEGRADTTTGSIAGAPEDERSQSTAPQAPECFDPAGPAGLVRPTSGLSQGPGKETLESALIALDSEKPKKLRFHPKQLYFSARQGELQKVLLMLVDGIDPNFKMEHQSKRSPLHAAAEAGHVDICHMLVQAGANIDTCSEDQRTPLMEAAENNHLDAVKYLIKAGAQVDPKDAEGSTCLHLAAKKGHYDVVQYLLSNGQMDVNCQDDGGWTPMIWATEYKHVELVKLLLSKGSDINIRDNEENICLHWAAFSGCVDIAEILLAAKCDLHAVNIHGDSPLHIAARENRYDCVVLFLSRDSDVTLKNKEGETPLQCASLSSQVWSALQMSKALRDSAPDKPVAVEKTVSRDIARGYERIPIPCVNAVDSELCPTNYKYVSQNCVTSPMNIDRNITHLQYCVCVDDCSSSTCMCGQLSMRCWYDKDGRLLPEFNMAEPPLIFECNHACSCWRNCRNRVVQNGLRARLQLYRTQDMGWGVRSLQDIPLGTFVCEYVGELISDSEADVREEDSYLFDLDNKDGEVYCIDARFYGNVSRFINHHCEPNLVPVRVFMSHQDLRFPRIAFFSTRLIQAGEQLGFDYGERFWDVKGKLFSCRCGSSKCRHSSAALAQRQASAAQEPQENGLPDTSSAAAADPL
Take B2: the “affinity for H3K9me1 peptide, in words” value is “can recognize H3K9me1” in data set [1] and “binds H3K9me1 peptides tightly” in data set [1] (listed as GLP). Besides, in data set [2] (GLP ANK-SET homodimer, reduction as worded (reference me1 binding or ANK alone not stated)), the “reduced binding to me2 peptides (fold)” value was 12.5 times. Moreover, the “binding to nucleosomes, in words” value in data set [3] is on record as “binds poorly to nucleosomes”. In addition, the Kd in data set [3] (147 bp 601 DNA 5ʹ fluorescein-labeled nucleosomes, 150 nM, pH 8, 100 mM KCl, 0.1% NP-40, 95% CI (μM): G9a 6.4-8.6, G9a-GLP 5.6-7.6, GLP-GLP 17.4-41.5, read-out: Kd, unmethylated (me0) mononucleosome) is 26.3 µM. The “binding to H3K9me1 nucleosomes, in words” value in data set [4] is reported as “binds relatively tightly to H3K9me1”. Further, in data set [5], the “kcat, H3_1–20 peptide” value is roughly 0.233 s⁻¹. The “activity on mononucleosomes near saturation, in words” value in data set [6] is reported as “slowest of the three enzyme constructs”. Further, in data set [7], the “initial rate on nucleosome arrays, in words” value is reported as “slowest”.
